Test results taken from the supplement of paper PMC10201428.
± gives the standard deviation of the averaged measurements.

These sequences were tested on VchCAST RNA-guided transposition machinery (E. coli BL21(DE3) host, lacZ target) (assay: relative integration efficiency (T-RL orientation) vs wild-type transposon end (log2 (normalized fold change)); transposon end mutated: left end; higher = more efficient transposition).
Protocol: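 Pooled, barcoded VchCAST (Tn6677) mini-transposon donor libraries; each variable transposon-end sequence sits in a fixed pDonor mini-transposon context (10-bp barcode and cargo not included). Left- or right-end libraries were co-transformed with pEffector (TniQ-Cascade, TnsABC, lacZ crRNA, T7, 0.1 mM IPTG) into E. coli BL21(DE3) and grown 18 h at 37 C. T-LR and T-RL junction amplicons were sequenced; output/input barcode fold change was normalised to the mean of four wild-type barcodes and log2-transformed. Two biological replicates; zero-count/undetected variants carry floor values (-10 / -15), censored here. Barcode uncoupling by PCR recombination adds noise.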

In order of falling “relative integration efficiency (log2)” value:
1. AATGTTGTTGATGCAACCATAAAGTGATATTTAATAATTATTTATAATCAGCAACTTAACCACCAACCATATATTGATATCTCAAAAACAAAACAACCATAAGTTGATATTTTTGTGAATCGAGTATTTCAGCAAAACTACTGCAGTAAGAA  -2.83 ± 0.93
2. AATGTTGTTGATGCAACCATAAAGTGATATTTAATAATTATTTATAATCAGCAACTTAACCCAACCATATATTGATATCTCACAAAAACAAAACAACCATAAGTTGATATTTTTGTGAATCGAGTATTTCAGCAAAACTACTGCAGTAAGAA  -3.11 ± 0.98
3. AATGTTGTTGATGCAACCATAAAGTGATATTTAATAATTATTTATAATCATTGTGAGCGGATAACAACAACCATATATTGATATCTCACAAAACAACCATAAGTTGATATTTTTGTGAATCGAGTATTTCAGCAAAACTACTGCAGTAAGAA  -3.2 ± 0.53
4. AATGTTGTTGATGCAACCATAAAGTGATATTTATATTAATAAATATTAGTCGTTGAATTGGTGTTTTCAACCATATATTGATATCTCACAAAACAACCATAAGTTGATATTTTTGTGAATCGAGTATTTCAGCAAAACTACTGCAGTAAGAA  -3.31 ± 1.4
5. AATGTTGTTGATGCAACCATAAAGTGATATTTATACCGTTCGTATACGATACATTATACGAAGTTATCAACCATATATTGATATCTCACAAAACAACCATAAGTTGATATTTTTGTGAATCGAGTATTTCAGCAAAACTACTGCAGTAAGAA  -4.08 ± 1.3
6. AATGTTGTTGATGCAACCATAAAGTGATATTTAATAACTTCGTATAGCATACATTATACGAAGTTATCAACCATATATTGATATCTCACAAAACAACCATAAGTTGATATTTTTGTGAATCGAGTATTTCAGCAAAACTACTGCAGTAAGAA  -4.52 ± 0.95
7. AATGTTGTTGATGCAACCATAAAGTGATATTTAATAATTATTTATAATCAGCAACTCAACCATATATTGATATCTCTAACCACAAAAACAAAACAACCATAAGTTGATATTTTTGTGAATCGAGTATTTCAGCAAAACTACTGCAGTAAGAA  -4.84 ± 0.92
8. AATGTTGTTGATGCAACCATAAAGTGATATTTAATAATTATTTATAATCAGCAACTTAACCACCAACCATATATTGATATCTCACAAAACAACCATAAGTTGATATTTTTGTGAATCGAGTATTTCAGCAAAACTACTGCAGTAAGAAAGTT  -4.85 ± 1.1
9. AATGTTGTTGATGCAACCATAAAGTGATATTTAATAATTATTTATAATCAGCAACTTAACCAACCATATATTGATATCTCACAAAACAACCATAAGTTGATATTTTTGTGAATCGAGTATTTCAGCAAAACTACTGCAGTAAGAAAGTTACT  -5.17 ± 1.5
10. AATGTTGTTGATGCAACCATAAAGTGATATTATAATTATTTATAATCAGCAACTTAACCACAAAACAACCATATATTGATATCTCACAAAACAACCATAAGTTGATATTTTTGTGAATCGAGTATTTCAGCAAAACTACTGCAGTAAGAAAG  -5.22 ± 1.1
11. AATGTTGTTGATGCAACCATAAAGTGATATTTAATAATTATTTATAATCAGCAACTTAACCACAACCATATATTGATATCTCACAAAACAACCATAAGTTGATATTTTTGTGAATCGAGTATTTCAGCAAAACTACTGCAGTAAGAAAGTTA  -5.27 ± 0.97
12. AATGTTGTTGATGCAACCATAAAGTGATATTTAATAATTATTTCAACCATATATTGATATCTCATAATCAGCAACTTAACCACAAAAACAAAACAACCATAAGTTGATATTTTTGTGAATCGAGTATTTCAGCAAAACTACTGCAGTAAGAA  -5.79 ± 0.8
13. AATGTTGTTGATGCAACCATAAAGTGATATTTAATAATTATTTATAATCAGCAACTTAACCACAAAATGTGAATCGAGTATTTCAGCCAACCATATATTGATATCTCACAAAACAACCATAAGTTGATATTTTAAAACTACTGCAGTAAGAA  -5.8 ± 1.9
14. AATGTTGTTGATGCAACCATAAAGTGATATTTAATAATTATTTATAATCAGCAACCAACCATATATTGATATCTCTTAACCACAAAAACAAAACAACCATAAGTTGATATTTTTGTGAATCGAGTATTTCAGCAAAACTACTGCAGTAAGAA  -5.89 ± 1.6
15. AATGTTGTTGATGCAACCATAAAGTGATATTTAATAATTATTTATAATCAGCAACCAACCATATATTGATATCTCACAAAACAACCATAAGTTGATATTTTTGTGAATCGAGTATTTCAGCAAAACTACTGCAGTAAGAAAGTTACTTCGTG  -6.44 ± 0.52
16. AATGTTGTTGATGCAACCATAAAGTGATATTTAATAATTATTTATAACAACCATATATTGATATCTCACAAAACAACCATAAGTTGATATTTTTGTGAATCGAGTATTTCAGCAAAACTACTGCAGTAAGAAAGTTACTTCGTGGTATGGGA  -6.45 ± 1
17. AATGTTGTTGATGCAACCATAAAGTGATATTTAATAATTATTTATAATCAGCAACTTAACCACCCCCACCAACGCGCGGTCGCGAGACACCCCACCAACGCCTGGTCGCGGGGGTGTCCGATCTGATTTCAGCAAAACTACTGCAGTAAGAA  -6.56 ± 0.76
18. AATGTTGTTGATGCAACCATAAAGTGATATTTAATAATTATTTATAATCACAACCATATATTGATATCTCGCAACTTAACCACAAAAACAAAACAACCATAAGTTGATATTTTTGTGAATCGAGTATTTCAGCAAAACTACTGCAGTAAGAA  -6.71 ± 0.83
19. AATGTTGTTGATGCAACCATAAAGTGATATTTAATAATTATTTATCCGACTACCAGGCCAACACCCCACCAACGCGCGGTCGCGAGACACCCCACCAACGCCTGGTCGCGGGGGTGTCCGATCTGATTTCAGCAAAACTACTGCAGTAAGAA  -6.94 ± 1.3
20. AATGTTGTTGATGCAACCATAAAGTGATATTTAATAATTATTTAGCCGACTACCAGGCCAACACCCCACCAACGCGCGGTCGCGAGACACCCCACCAACGCCTGGTCGCGGGGGTGTCCGATCTGATTTCAGCAAAACTACTGCAGTAAGAA  -7.02 ± 1.2
21. AATGTTGTTGATGCAACCATAAAGTGATATTTAATAATTATTTATAATCAGCAACTTAACCACAAAACAACACGCGCGGTCGCGAGACACCCCACCAACGCCTGGTCGCGGGGGTGTCCGATCTGATTTCAGCAAAACTACTGCAGTAAGAA  -7.6 ± 2.4
22. AATGTTGTTGATGCAACCATAAAGTGATATTTAATAATTATTTATAATCAGCAACAACCATATATTGATATCTCACAAAACAACCATAAGTTGATATTTTTGTGAATCGAGTATTTCAGCAAAACTACTGCAGTAAGAAAGTTACTTCGTGG  -7.72 ± 1.1
23. AATGTTGTTCAACCATAAAGTGATATTTAATAATTATTTATAATCAGCAACTTAACCACAAAACAACCATATATTGATATCTCACAAAACAACCATAAGTTGATATTTTTGTGAATCGAGTATTTCAGCAAAACTACTGCAGTAAGAAAGTT  -7.77 ± 0.46
24. AATGTTGTTGATGGTTGGTATTTCACTATAAATATAATTATTTATAATCAGCAACTTAACCACAAAAGTTGGTATATAACTATAGAGACAAAACAACCATAAGTTGATATTTTTGTGAATCGAGTATTTCAGCAAAACTACTGCAGTAAGAA  -8.28 ± 1.3
25. AATGTTGTTGATGCAACCATAAAGTGATATTTAATAATTATTTATAATCAGCAACCATATATTGATATCTCACAAAACAACCATAAGTTGATATTTTTGTGAATCGAGTATTTCAGCAAAACTACTGCAGTAAGAAAGTTACTTCGTGGTAT  -8.36 ± 0.35
26. AATGTTGTTGATGGTTGGTATTTCACTATAAATATAATTATTTATAATCAGCAACTTAACCACAAAACAACCATATATTGATATCTCACAAAAGTTGGTATTCAACTATAAAATGTGAATCGAGTATTTCAGCAAAACTACTGCAGTAAGAA  -8.45 ± 0.29
